Source: the nanobody polyreactivity screen of Harvey et al. (2022)

Experiment: yeast display, Sf9 membrane polyspecificity reagent, FACS + sequencing; frameworks hold sequencing errors
Method in brief: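 Galactose induction of a Saccharomyces cerevisiae BJ5465 synthetic nanobody display library ran 36–48 hours. The cells were then stained for 1 hour at 4 °C with 10% biotinylated, detergent-solubilized Sf9 membrane reagent, pulled down on streptavidin microbeads and FACS-sorted into low and high (top ~1%) gates on expression and reagent-binding fluorescence. Labels for polyreactivity follow the gate of origin.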

Row | Sequence | polyreactivity (PSR sort gate)
1 | QVQLVESGGGLVQAGGSLRLSCAASGRTIRGNAMGWYRQAPGKERELVAAIRWNGGSTYYADSVKGRFTISRDNAKNTVYLQMNSLKPEDSAVSYCAVSYWYSRYDYWGQGTQVTVSS | high polyreactivity
2 | QVQLVESGGGLVQAGGSLRLSCAPSGLTFDVYAMGWYRQAPWKQRELVAAISSIGGSTYYADSVKGRFTISRDTAKNTVYVQMNSLKPEDTAVYYCAAAISLYSYDYWGQGTQVTVSS | low polyreactivity
3 | QVQLVESGGGLVQAGGSLRLSCAASGLIFRYKAMGWYRQAPGKERELVAAISRSRGTTYYADSVKGRFTISRDNAKNTVYLQMNSLKPEDTAVYYCATRISQSYYNYGYWGQGTQVTVSS | high polyreactivity
4 | QVQLVESGGGLVQAGGSLRLSCAPSGIILGYYAMGWYRQAPGKERELVAAISSGGRTYYADSVKGRFTISRDNAKNTVYLQMNSLKPEDTAVYYCAADDTRGREEYDYWGQGTQVTVSS | high polyreactivity
5 | QVQLVESGGGLVQAGGSLRLSCAASGRIITYYAMGWYRQAPGKERELVAAISRTGGTTYYADSVKGRFTISRDNAKNTVYLQMNSLKPEDTAVYYWNAVKAPYLRYDYWGQGTQVTVSS | high polyreactivity
6 | QVQLVESGGGLVQAGGSLRLSCAASGSIIRDNAMGWYRQAPGKERELVAAISVSGGRTYYADSVKGRFTISRDNAKNTVYLQMNSLKPEDTAVYYCAALRRPSYPGRFAELDYWGQGTQVTVSS | high polyreactivity
7 | QVQLVESGGGLVQAGGSLRLSCAASGITFSNYAMGWYRQAPGKERELVAAITLSGGRTYYADSVKGRFTISRDNAKNTVYLQMNSLKPEDTAVYYCAAGRTRRPLGGTTKYYYWGQGTQVTVSS | high polyreactivity
8 | QVQLVESGGGLVQAGVSLRLSCAASGRTFYGNAMGWYRQAPGKERELVAAISRSGGRTYYADSVKGRFTISRDNAKNTVYLQMNSLKPEDTAVYYCAKDYYYPSHTYGYWGQGTQVTVSS | high polyreactivity
9 | IIQAGGSLRLSCAASGGTFFVYMGWYRQAPGKERELVADISGFGGGTYYADSVKGRFTISRDNAKNTVYLQMNSLKPEYTAVYYCATVVPTGIIRMYWGQGTQVTVSS | low polyreactivity
10 | QVQLVESGGGLVQAGGTLRLSCAASGRIFTRYAMGWYRQAPGKERELVAAISYGGGVTYYADSVKGRFTISRDNAKNTVYLQMNSLKPEDTAVYYCATDDPLSQINEKGMDYWGQGTQVTVSS | low polyreactivity
11 | QVQLVESGGGLVQAGGSLRLSCAATGRTFIPYAMGWYRQAPGKERELVAAIRTTGGSTYYADSVKGRFTISRDNAKNTVYLQMNSLKPEDTAVYYCAATSRQRPYDYWGQGTQVTVSS | high polyreactivity
12 | QVQLVESGGGLVQAGGSLRLSCAASGITFKRYAMGWYRQAPGKEREMVAAITGIGGSTYYADSVKGRFTISRDNAMNTVYLQMNSLKPEDTAVYYCAARNNKKYDYWGQGTQVTVSS | high polyreactivity
13 | QVQLVESGGGLVQAGGSLRLSCAASGFIFEYYAMGWYRQAPGKERELVAAISSSGGSTYYADSVKGRFTISRDNAKNTVYLQMNSLKPEDTAVYYCAKDYAPSATKLHYWGQGTQVTVSS | low polyreactivity
14 | QVQLQESGGGLVQAGGSLCMSCAASGSISDYIFMCWYRQAPGKVREFVAGIGIGGKTNYADSVKGRFTIRRDNEKYTVYLQMNSLKPEDTALYYCAANATYTDYYAYCGQGTQVTVSS | low polyreactivity
15 | QVQLVESGGGLVQAGGSLRLSCAASGFIFSRYAMGWYRQAPGKERELVAAINLSGTSTYYADSVKGRFTISRDNAKNTVYLQMNSLKPEDTAVYYCAATSSYIYPYGYWGQGTQVTVSS | high polyreactivity
16 | QVQLVESGGGLVQAGGSLRLSCAASGSIFDLNAMGWYRQAPGKERELVAAISKSGGSTYYADSVKGRFTISRDNAKNTVYLQMNSLKPEDTAVYYCAARYHYPGNWYNYWGQGTQVTVSS | low polyreactivity
17 | QVQLVESGGGLVQAGASLRLSCAASGFIFNQYAMGWYRQAPGKERELVAGITWRGGRTYYADSVKGRFTISRDNAKNTVYLQMNSLKPEDTAVYYCAADVAHYNGGEYYYWGQGTQVTVSS | high polyreactivity
